Results reported in US20190373867A1.

Columns and labels:
[1] = biological target: endogenous mouse SIRPα of wildtype C57BL/6 mice (NP_031573.2) (mouse (C57BL/6)) (UniProt P97797); assay: flow cytometry; CD47 protein on peritoneal cavity cells of wildtype C57BL/6 mice, detected with anti-CD47 human antibody and AF647-Anti-hIgG
[2] = biological target: endogenous mouse SIRPα of wildtype BALB/c mice (mouse (BALB/c)) (UniProt P97797); assay: flow cytometry; CD47 protein on peritoneal cavity cells of wildtype BALB/c mice, detected with anti-CD47 human antibody and AF647-Anti-hIgG

Chain of UniProt P97797 (P97797 other isoform, or with tags, fused parts or gaps): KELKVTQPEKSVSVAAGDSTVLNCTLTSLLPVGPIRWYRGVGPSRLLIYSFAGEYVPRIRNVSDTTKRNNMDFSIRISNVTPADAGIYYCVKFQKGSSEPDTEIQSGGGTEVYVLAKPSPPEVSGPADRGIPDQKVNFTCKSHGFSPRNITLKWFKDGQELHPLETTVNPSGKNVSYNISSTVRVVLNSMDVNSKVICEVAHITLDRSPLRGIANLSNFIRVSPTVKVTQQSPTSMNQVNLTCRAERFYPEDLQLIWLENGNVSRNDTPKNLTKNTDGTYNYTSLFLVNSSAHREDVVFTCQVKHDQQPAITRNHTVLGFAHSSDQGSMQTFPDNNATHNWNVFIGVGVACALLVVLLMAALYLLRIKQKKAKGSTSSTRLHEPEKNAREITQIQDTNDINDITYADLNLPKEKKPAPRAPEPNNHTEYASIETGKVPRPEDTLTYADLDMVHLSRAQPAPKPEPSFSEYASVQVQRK

In the case of “mouse CD47 proteins (added to peritoneal cavity cells, Example 16) (ligand)”, the geometric mean of flow cytometry signal [1] is reported as 100 and the geometric mean of flow cytometry signal [2] is reported as 100.
